Test results taken from patent US6858382 (GENERAL HOSPITAL, dated 2005).

Biological target: T1, TetR-RasV12A186 (bacterial transposon Tn10, UniProt P04483 1-207; P01112 1-189)
T1 construct: Yeast two-hybrid bait
Assay: yeast two-bait interaction trap, TetOp-URA3 reporter (growth without uracil)

T1 sequence (P04483 1-207, tags or fused parts left off): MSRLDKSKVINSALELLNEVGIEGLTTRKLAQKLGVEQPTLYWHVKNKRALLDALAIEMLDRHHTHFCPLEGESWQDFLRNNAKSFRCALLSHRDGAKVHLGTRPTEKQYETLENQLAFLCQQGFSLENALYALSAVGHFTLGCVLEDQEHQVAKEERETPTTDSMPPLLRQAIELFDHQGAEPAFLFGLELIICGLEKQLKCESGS

binding result: no binding
B1: B42-Mxi1 (other, UniProt P50539 1-228, looked up, not shown: large carriers)
chain: MERVKMINVQRLLEAAEFLERRERECEHGYASSFPSMPSPRLQHSKPPRRLSRAQKHSSGSSNTSTANRSTHNELEKNRRAHLRLCLERLKVLIPLGPDCTRHTTLGLLNKAKAHIKKLEEAERKSQHQLENLEREQRFLKWRLEQLQGPQEMERIRMDSIGSTISSDRSDSEREEIEVDVESTEFSHGEVDNISTTSISDIDDHSSLPSIGSDEGYSSASVKLSFTS
notes: Yeast two-hybrid prey, used as a positive control with Max
